In patent US20150004189A1 (published 2015):

Experiments:
[1] = molecular target: T1, HLA DP molecule DPB1*0201 (human); experiment: competition vs radiolabeled peptide, purified HLA-DP
T1 chain 1: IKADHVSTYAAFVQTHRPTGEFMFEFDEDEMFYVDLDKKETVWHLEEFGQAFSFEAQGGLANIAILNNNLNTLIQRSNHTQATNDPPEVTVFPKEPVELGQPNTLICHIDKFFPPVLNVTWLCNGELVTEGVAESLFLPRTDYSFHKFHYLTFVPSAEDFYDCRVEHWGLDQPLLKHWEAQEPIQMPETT
T1 chain 2: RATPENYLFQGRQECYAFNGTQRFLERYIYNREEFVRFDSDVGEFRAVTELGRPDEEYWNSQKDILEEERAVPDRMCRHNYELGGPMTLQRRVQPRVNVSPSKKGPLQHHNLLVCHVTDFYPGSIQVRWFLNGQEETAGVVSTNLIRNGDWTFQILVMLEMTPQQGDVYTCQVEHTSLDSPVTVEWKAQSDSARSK

[2] = molecular target: T2, HLA DP molecule DPB1*0401 (human); experiment: as above
T2 chain 1: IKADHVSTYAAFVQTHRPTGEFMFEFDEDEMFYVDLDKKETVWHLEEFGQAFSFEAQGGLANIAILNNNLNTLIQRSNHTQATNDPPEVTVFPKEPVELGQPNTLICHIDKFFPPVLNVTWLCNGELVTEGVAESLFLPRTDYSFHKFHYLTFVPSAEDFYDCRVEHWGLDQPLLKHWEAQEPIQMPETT
T2 chain 2: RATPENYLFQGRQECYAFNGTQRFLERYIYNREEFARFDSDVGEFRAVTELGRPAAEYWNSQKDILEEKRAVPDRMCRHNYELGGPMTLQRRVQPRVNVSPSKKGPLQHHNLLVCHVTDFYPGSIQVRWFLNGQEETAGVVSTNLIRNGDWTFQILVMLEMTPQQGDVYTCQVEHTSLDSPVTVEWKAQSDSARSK

[3] = molecular target: HLA DQ molecule DQB1*0503 (human); experiment: inhibition of radiolabeled peptide binding to purified HLA DQ
[4] = molecular target: HLA DQ molecule DQB1*0202 (human); experiment: as above
[5] = molecular target: HLA DQ molecule DQB1*0502 (human); experiment: as above
[6] = molecular target: HLA DQ molecule DQB1*0602 (human); experiment: as above
[7] = molecular target: HLA DQ molecule DQB1*0502 (human); experiment: inhibition of radiolabeled peptide binding to purified HLA class II
[8] = molecular target: HLA DQ molecule DQB1*0503 (human); experiment: as above
[9] = molecular target: HLA DQ molecule DQB1*0202 (human); experiment: as above
[10] = molecular target: HLA DQ molecule DQB1*0503 (human); experiment: as above; remark: listed apart in the source
[11] = molecular target: T3, HLA DQ molecule DQB1*0501 (human, limits assumed); experiment: as above
T3 MHC II alpha: not shown
T3 MHC II beta: not shown

[12] = molecular target: T4, HLA DQ molecule DQB1*0302 (human, UniProt P01909 24-216; P01920 33-230, limits assumed); experiment: as above
T4 MHC II alpha: not shown
T4 MHC II beta: not shown

[13] = molecular target: HLA DQ molecule DQB1*0502 (human); experiment: as above; remark: listed apart in the source
[14] = molecular target: HLA DQ molecule DQB1*0602 (human); experiment: as above
[15] = molecular target: HLA DQ molecule DQB1*0602 (human); experiment: as above; remark: listed apart in the source
[16] = molecular target: HLA-DP molecule DPB1*2001 (human); experiment: inhibition of radiolabeled peptide binding to purified HLA-DP
[17] = molecular target: HLA-DP molecule DPB1*1401 (human); experiment: as above
[18] = molecular target: T5, HLA-DP molecule DPB1*0401 (human); experiment: as above
T5 chain 1: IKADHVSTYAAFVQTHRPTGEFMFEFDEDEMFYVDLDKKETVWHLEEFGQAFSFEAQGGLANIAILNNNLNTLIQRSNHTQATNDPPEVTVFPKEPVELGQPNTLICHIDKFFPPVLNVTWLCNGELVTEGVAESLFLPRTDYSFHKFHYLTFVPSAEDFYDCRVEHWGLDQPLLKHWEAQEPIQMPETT
T5 chain 2: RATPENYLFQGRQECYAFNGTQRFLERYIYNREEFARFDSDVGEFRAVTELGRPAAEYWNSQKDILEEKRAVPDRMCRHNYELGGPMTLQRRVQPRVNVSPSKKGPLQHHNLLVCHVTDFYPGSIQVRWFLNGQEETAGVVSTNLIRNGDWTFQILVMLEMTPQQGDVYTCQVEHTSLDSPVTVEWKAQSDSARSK

[19] = molecular target: T6, HLA-DP molecule DPB1*0501 (human, UniProt P20036 29-222; P04440 30-225, limits assumed); experiment: as above
T6 MHC II alpha: not shown
T6 MHC II beta: not shown

[20] = molecular target: T7, HLA-DP molecule DPB1*0101 (human, UniProt P20036 29-222; P04440 30-225, limits assumed); experiment: as above
T7 MHC II alpha: not shown
T7 MHC II beta: not shown

[21] = molecular target: T8, HLA-DP molecule DPB1*0201 (human, UniProt P20036 29-222; P04440 30-225, limits assumed); experiment: as above
T8 MHC II alpha: not shown
T8 MHC II beta: not shown

[22] = molecular target: HLA DQ molecule DQB1*0202 (human); experiment: inhibition of radiolabeled peptide binding to purified HLA class II; remark: listed apart in the source

DEYVEQVAQYKALPV [Fel d 1 1 peptide, position 41, DEYVEQVAQYKALPV (Peptide ID 3324.1049)]
IC50 [1]: 1120 nM
IC50 [2]: 533 nM

EGTVDFIFGEARSLY [Sal k 1 1 peptide, position 191 (Peptide ID 3324.1590)]
IC50 [3]: 2360 nM
IC50 [4]: 3120 nM
IC50 [5]: 6850 nM

FTSLEYIEAAKWLLP [Sal k 1 1 peptide, position 321 (Peptide ID 3324.1589)]
IC50 [6]: 1300 nM

DSYKFIPTLVAAVKQ [Lol p 5 1 peptide, position 236, DSYKFIPTLVAAVKQ (Peptide ID 3324.1165), listing 1 of 2 here]
IC50 [7]: 50000 nM
IC50 [8]: 4640 nM
IC50 [9]: 5860 nM

ATPEAKFDSFVAAFT [Poa p 5 peptide, position 121 (Peptide ID 3324.1570)]
IC50 [3]: 910 nM
IC50 [5]: 8000 nM

QKLMEDINVGFKAAV [Poa p 5 peptide, position 51 (Peptide ID 3324.1580)]
IC50 [3]: 5210 nM
IC50 [4]: 8070 nM
IC50 [6]: 1290 nM

PAVKYIEPDMIVNAT [Pen ch 13 (101-115) peptide PAVKYIEPDMIVNAT, Peptide ID 3324.1304]
IC50 [10]: 1790 nM
IC50 [11]: 119 nM
IC50 [12]: 822 nM
IC50 [13]: 1960 nM
IC50 [14]: 549 nM

IFYDVFFAVANGNEL [Fel d 1 2 peptide, position 26, IFYDVFFAVANGNEL (Peptide ID 3324.1052)]
IC50 [1]: 89 nM
IC50 [2]: 242 nM

IAFFRKEPLKECGGI [Lol p 11 peptide, position 116, IAFFRKEPLKECGGI (Peptide ID 3337.0029)]
IC50 [15]: 50000 nM
IC50 [7]: 1440 nM
IC50 [8]: 903 nM
IC50 [9]: 26200 nM

NGNELLLDLSLTKVN [Fel d 1 2 peptide, position 36, NGNELLLDLSLTKVN (Peptide ID 3324.1055)]
IC50 [2]: 590 nM

IKSDKPLKGPFNFRF [Lol p 2 peptide, position 56, IKSDKPLKGPFNFRF (Peptide ID 3324.1140)]
IC50 [15]: 50000 nM
IC50 [7]: 38200 nM
IC50 [8]: 50000 nM

DAYVATLTEALRVIA [Lol p 5 1 peptide, position 151, DAYVATLTEALRVIA (Peptide ID 3324.1167)]
IC50 [16]: 597 nM
IC50 [17]: 4400 nM
IC50 [18]: 515 nM

FKAAVAAAAGAPPAD [Poa p 5 peptide, position 61, FKAAVAAAAGAPPAD (Peptide ID 3324.1575)]
IC50 [16]: 2940 nM
IC50 [18]: 28900 nM

NALSVLDKIYTSPLC [Fel d 1 1 peptide, position 78, NALSVLDKIYTSPLC (Peptide ID 3324.1050)]
IC50 [1]: 575 nM
IC50 [2]: 349 nM

DSYKFIPTLVAAVKQ [Lol p 5 1 peptide, position 236, DSYKFIPTLVAAVKQ (Peptide ID 3324.1165), listing 2 of 2 here]
IC50 [19]: 6.9 nM
IC50 [16]: 12 nM
IC50 [20]: 79 nM
IC50 [21]: 69 nM

AETCPIFYDVFFAVA [Fel d 1 2 peptide, position 21, AETCPIFYDVFFAVA (Peptide ID 3324.1056)]
IC50 [1]: 8.1 nM
IC50 [2]: 5.6 nM

AETCPIFYDVFFAVA [Fel d 1 2 (21-35) peptide AETCPIFYDVFFAVA, Peptide ID 3324.1056]
IC50 [22]: 2100 nM

DINVGFKAAVAAAAG [Poa p 5 peptide, position 56, DINVGFKAAVAAAAG (Peptide ID 3324.1571)]
IC50 [16]: 295 nM
IC50 [18]: 20700 nM
